Experimental data as given in US20170335314, “Methods For Using Nucleic Acid Aptamers For Directed Templated Assembly” (TriBiotica LLC, published 2017).

B1: aptamer 229 (10AptL3) (ssDNA)
DNA: CATCTCCACCTCCATAACCCACGGACGGGCGTCTAGAGAAGTAGGCTGAAATATCGTGGCGAGAACGAGCTGTGTCCTGAAGAAA
B2: binary aptamer 229-228 (ligated, 170 nt) (ssDNA)
DNA: CATCTCCACCTCCATAACCCACGGACGGGCGTCTAGAGAAGTAGGCTGAAATATCGTGGCGAGAACGAGCTGTGTCCTGAAGAAAGCAAAGACATCTGGACACGCCACTAAGTGGAGGTGATCTGTACTTCATTTATGAGATCGCGGCGAGGAGAAGGAGACTTAGAGGC
B3: aptamer 228 (10AptR1) (ssDNA)
DNA: GCAAAGACATCTGGACACGCCACTAAGTGGAGGTGATCTGTACTTCATTTATGAGATCGCGGCGAGGAGAAGGAGACTTAGAGGC

Columns and labels:
[1] = molecular target: T1, streptavidin (magnetic beads) (UniProt P22629 P22629:25-183); test: pulldown; beads without bFab; conditions: tags: immobilised on magnetic beads; chain copies: 4
T1 sequence (P22629 25-183, one chain of several): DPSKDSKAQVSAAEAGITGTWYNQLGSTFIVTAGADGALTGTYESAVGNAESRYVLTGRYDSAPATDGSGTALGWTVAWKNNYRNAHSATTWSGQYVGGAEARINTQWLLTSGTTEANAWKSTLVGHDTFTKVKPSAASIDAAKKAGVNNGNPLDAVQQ
Protocol: Aptamers were incubated with bFab (2.5-fold molar excess), then bound to SAMBs. Supernatants were taken, and the SAMBs washed 3 times. Bound material was eluted with 0.1 M NaOH, and then precipitated, washed, dried, and reconstituted before loading samples on a denaturing acrylamide gel. […] M is a size marker (top band 60 bases; aptamer bands 85 bases).
To assess binding of 10th-cycle singlet aptamers to the selective agent (the Fab target), direct binding assays were carried out. Here, single-stranded aptamer preparations (self-annealed as usual) were incubated with or without biotinylated Fab fragments in PBSM, followed by adsorption onto streptavidin magnetic beads. After this incubation period, the beads were magnetically separated, and the supernatants retained. After 3 washes of the beads, the bound material was eluted by means of 2×20 second incubations with 100 μl of 0.1 M NaOH, with the eluates immediately precipitated with 0.3 M sodium acetate and 3 volumes of ethanol. Pellets were washed with 70% ethanol, and dried. After reconstitution in 5 μl of TE, 1 μl samples were denatured in formamide and run on 10% urea (denaturing) gels. […]

[2] = molecular target: T1, streptavidin (magnetic beads); test: pulldown; beads without bFab; conditions: tags: immobilised on magnetic beads; chain copies: 4; remark: listed apart in the source
Protocol: Pellets were washed with 70% ethanol, and dried. After reconstitution in 5 μl of TE, 1 μl samples were denatured in formamide and run on 10% urea (denaturing) gels. Results of such an experiment with the candidate singlet aptamers 228/10AptR1 (see, FIG. 27 and FIG. 29) and 229/10AptL3 (see, FIG. 29) and a specific arbitrary unselected control Right-aptamer (#136; sequence corresponds to: GCAAAGACATCTGGA […] AAGGAGACTTAGAGGC (SEQ ID NO:6); where underlining indicates the 40-mer aptamer tract; remaining sequences are primer sites) are shown in FIG. 30. The supernatants from the 228/10AptR1 and 229/10AptL3 binding (but not #136) were depleted only in the presence of biotinylated Fab. Moreover, the eluted material from biotinylated Fab on the streptavidin magnetic beads was highly enriched for aptamer bands only for 228/10AptR1 and 229/10AptL3 (see, FIG. 30).
Despite successful in situ assembly of binary aptamers upon the target to which they were bound (as in Example 1), it could not be assumed that binary aptamers formed in solution would be capable of binding the same targets. This was assessed using the same aptamers as used in direct binding tests (Example 3; 228/10AptR1 and 229/10AptL3), but where the aptamers were initially ligated together by means of the same splint oligonucleotide as used in Example 1. […]

Binder | binding result [1] | binding result [2]
B1 | no binding | –
B2 | – | no binding
B3 | no binding | –
